Here are results for four molecules from paper PMC3240820 (Structure (London, England : 1993), 2011).

Where two headings read alike, the source gives them in different places.

Data set [1] concerns the molecule itself.
For another data set, the target named is Caskin1 CID-2SAMs G520E (human, UniProt Q8WXD9 375-605, G520E). Briefly: SEC. A general note: SEC sorts molecules by how far they enter the pores of the column.
Data set [2] has as its target T1, CaMK domain of CASK (CASK310), residues 1-310 (UniProt O14936 1-310).
T1 sequence (looked up): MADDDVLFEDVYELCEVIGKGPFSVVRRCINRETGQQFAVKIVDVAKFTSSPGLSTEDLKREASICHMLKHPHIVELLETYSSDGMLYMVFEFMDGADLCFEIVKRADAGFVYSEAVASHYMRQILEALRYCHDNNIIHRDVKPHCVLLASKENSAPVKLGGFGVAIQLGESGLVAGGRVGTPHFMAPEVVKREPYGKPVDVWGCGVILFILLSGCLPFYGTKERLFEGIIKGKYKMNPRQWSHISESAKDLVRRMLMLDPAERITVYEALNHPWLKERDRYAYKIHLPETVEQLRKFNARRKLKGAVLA
Briefly: co-precipitation on dialysis into low salt.

The data set “crystal structure” deals with the molecule itself. Briefly: crystal structure.

Caskin1 CID-2SAMs G520E, sequence (Q8WXD9 375-605 G520E): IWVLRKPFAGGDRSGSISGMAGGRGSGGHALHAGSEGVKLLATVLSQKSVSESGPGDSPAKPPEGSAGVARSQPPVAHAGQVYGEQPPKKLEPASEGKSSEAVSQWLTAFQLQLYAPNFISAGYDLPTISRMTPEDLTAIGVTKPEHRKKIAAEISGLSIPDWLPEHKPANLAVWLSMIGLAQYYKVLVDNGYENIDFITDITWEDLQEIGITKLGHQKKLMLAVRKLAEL

B1: Caskin1 SAMs (E470-G615) with the His-tag removed (domain or fragment)
chain: not shown
Regarding B1, the binding result in data set [1] is “binds”.

B2: Caskin1 CID-2SAMs G566K (domain or fragment)
chain: not shown
With B2, in the data set with Caskin1 CID-2SAMs G520E, the binding result is “binds”.

B3: Caskin1 CID-2SAMs (residues 375-605) (domain or fragment)
chain: not shown
Take B3: in data set [2], the binding result is reported as “binds”.

B4: Caskin1 6His-(E470-G615) (domain or fragment)
chain: not shown
B4: the binding result in the data set “crystal structure” is listed as “binds”.
